Experimental data reported in PMC8519878 (Cell Reports, 2021).

Target: SARS-CoV-2 S2P spike (SARS-CoV-2, ancestral spike (P0DTC2 …, stabilised))
Assay: cryo-EM structure

B1: antigen-binding fragment (Fab) of antibody 5-7, expressed as Fab (Fab, V domains shown)
VH: QVQLVQSGAEVKKPGASVKVSCKASGYTFTSYYMHWVRQAPGQGLEWMGVINPSGGSTSYAEKFRGRVTMTRDTSTSTVYMELSSLRSEDTAVYYCARDREPHSDSSGYWDSLKYYYYYALDVWGQGTTVTVSS
VL: AIQLTQSPSSLSASVGDRVTITCRASQGISSYLAWYQQKPGKAPELLIYAASTLQSGVPSRFSGSGSGTDFTLTISSLQPEDFATYYCQQLNTYPFTFGPGTKVDIK
- stoichiometry N: 3 Fabs per trimer
